Target: Recombinant His-tagged mouse CD36.ECD protein (Sino Biological) (mouse) (UniProt Q08857)
Test: ELISA, coated mouse CD36.ECD (FIG. 1D)

Chain of Recombinant His-tagged mouse CD36.ECD protein (Sino Biological) (mouse) (Q08857 30-439 limits assumed): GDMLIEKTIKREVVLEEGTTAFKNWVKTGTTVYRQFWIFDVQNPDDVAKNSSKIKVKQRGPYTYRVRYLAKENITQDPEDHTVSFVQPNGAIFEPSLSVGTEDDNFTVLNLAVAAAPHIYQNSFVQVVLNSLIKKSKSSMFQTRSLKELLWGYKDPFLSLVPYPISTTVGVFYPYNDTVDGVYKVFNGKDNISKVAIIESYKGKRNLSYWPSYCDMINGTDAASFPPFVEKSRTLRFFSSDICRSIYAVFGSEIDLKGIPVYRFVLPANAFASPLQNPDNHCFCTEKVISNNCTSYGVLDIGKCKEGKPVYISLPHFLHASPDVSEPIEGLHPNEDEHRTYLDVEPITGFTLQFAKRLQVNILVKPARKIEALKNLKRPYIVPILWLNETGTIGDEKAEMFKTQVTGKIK

EC50: 0.93 nM
Substance: D2712 (clone CRF D-2712, BD Biosciences, US) (antibody)
